From the nanobody polyreactivity screen of Harvey et al. (2022)

assay: yeast display, Sf9 membrane polyspecificity reagent, FACS + sequencing; frameworks hold sequencing errors
Outline: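 Nanobodies came from a synthetic yeast display library in Saccharomyces cerevisiae BJ5465, induced with galactose for 36–48 hours and stained for 1 hour at 4 °C with 10% biotinylated, detergent-solubilized Sf9 membrane reagent. Cells were enriched on streptavidin microbeads and then FACS-sorted, with low and high (top ~1%) gates set on anti-HA fluorescence for expression and streptavidin fluorescence for reagent binding. Each polyreactivity label reflects the gate a clone came from. Genes were amplified by colony PCR, sequenced by MiSeq 2 × 250 and filtered by CDR length.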

Sequence | polyreactivity (PSR sort gate)
QVQLVESGGGLVQAGGSLRLSCAASGRISSYYAMGWYRQAPGKDREFVARIRWSGGSTYYADSVKGRFTISRDNAKNTVYLQMNSLKPEDTAVYYCAAVPYAYGYTYDYWGQGTQVTVSS | high polyreactivity
QVQLVESGAGLVQAGGTLRLSCAASGFTCRYYAMGWSRQAPGKERELVASISWSGDSTYYADSVKGRFTISRDNAKNTGYLQMNSLKPEETAFYYCARQTGFPRSYIYRMYYWGQGTQVTVSS | high polyreactivity
QVQLVESGGGLVQAGGSLRLSCAASGRIFTSNTMGWYRPAPGKERELVAAITSSGGSMYYADSVKGRFTISRDNAKNTVYIQMNSLKPEDTAVYYCAARNYFWGQGTQVTVSS | low polyreactivity
QVQLVESGGGLVQAGGSLRLSCAASGSIFDPYAMGWYRQAPGKERELVAAISGSGGSTYYADSVKGRFTISRDNAKNTVYLQMNSLKPEDTALYFCAAADAWWGRRYKYYHWGQGPQVTVSS | low polyreactivity
QVQLVESGGGLVQAGGSLRLSCAASGITFNYYAMGWYRQAPGKERELVAVISSSGGRTYYADSVKGRFTISRDNAKNTVYLQMNSLKPEDTAVYYCAAGGSVAFYYWGQGTQVTVSS | high polyreactivity
QVQLVDSGGGLVQAGGSLRLSCAASGSIYGFYAMGWYRQAPGKERELVATIRTSGGNTYYADSVKGRFTISRDNAKNTVYLQLKSMKPEDTAVYYCAAAGYLYSGDVHYLYTYEYWGQRTQVTVSS | low polyreactivity
EVQLVESGGGLVQPGGSLRLSCAASGYIYSRYRMGWYRQAPGKGREFVAAISGGSSTNYADSVKGRFTISRDNSTNTVYLQMNSLRAEDTAVYYCAAYKIDSDPRVYWGQGTQVTVSS | low polyreactivity
QVQLVESGGGLVQAGGSLRLSCAASGSTFAVYAMGWYRQAPGKERELVAAITWSGGSTYYADSVKGRFTISRDNAKNTVYLQMNSLKPEDTAVYYCAATLIYHYWQLFIISTMGYWGQGTQVTVSS | low polyreactivity
QVQLVESGGGLVQAVGSLRLSCAASGFTFQHYAMGWYRQAPGNERELVAVISFSGGRTYYADSVKGRFTISRDNAKNTVYLQMNSLKPEDTAVYYCAAVFWDDYGKYYYWGLGTQVTVSS | high polyreactivity
QVQLVESGGGLVQAGGSLRLSCAASGSTFTHYAMGWYRQAPGKERELVAAITSSGGSTYYADSVKGRFTISRDNAKNTVYLQMNSLKPEDTAVYYCAARGSYRNRYRHDYWGQGTQVTVSS | high polyreactivity
QVQLVESGGRLVQAGGSLRIICAASGIIFFHYAMGWYRQAPGKERELVAAITCSGGSTYYADSVKGRFTISRDKAKNTVYLHMNSLKPEDTAVYYGNAVLHRRLYDYWGQGTQVTVSS | high polyreactivity
QVQLVESGGGLVQAGGSLRLSCAASGLTFYYYVMGWYRQAPGKERELVAAISYSGGRTYYADSVKGRFTISRDNAKNTVSLQMNSLKPEDTAVYYCAAQSRYGGKFYYWGQGTQVTVSS | high polyreactivity
QVQLVESGGGLVQAGGSLRLSCAASGRIFYGYAMGWYRQAPGKERELVAAITYIGGPYYADSVKGRFTISRDNAKNTVYFQMNSQKPEDTAVYYCATEPFYTYGYYTYPYWYDYWGQGTQVTVSS | low polyreactivity
QVQLVESGGGLVQAGGSLRLSCAASGFIFLGNAMGWYRQAPGKERELVAAISSGGSTYADSVKGRFTISRDNAKNTVYLQMNSLKPEDTAVYYCAVDRAFRAQNYHEYDYWGQGTQVNVSS | low polyreactivity
QVQLVESWGGLVQAGGSLRLSCDASGSIFVSNAMGWYRQAPGKERELVAAISRGGVNTNYADSVKGRFTISRDNAKNTVYLQMNSLKQEDTAVYYCAAKWSHVRDGPKYDYCGQGTQVTVSS | low polyreactivity
QGQLVESGGGLVQAGGSLRISCGASGYIFGDKAMGWYRPEPGKARELVAAITQTGANTYYADSVMGRFTISRDNAKNTVYLQMNSLKPEDSAVYYCNKVSVVYSRSKGFYYTYLKYEFWGQGTQVTVSS | low polyreactivity
QVQLEESGGGLVQAGGSLRLSCAASGSIFNRYAMGWYRQAPGKEWELVAAISRSGGRTYYADSVKGRFTISRDNAKNTVYLQMNSLKPEDTAVYYCAADKYYRQHEYDYLGQGTQVTVSS | high polyreactivity
QVQLVESGGGLVQAGGSLRLSCAASGRIFARNAMGWYRQAPGKERELVATIRVGGGSTYYADSVKGRFTISRDNAKNTVYLQMNSLKPEDTAVYYCAVRQLYSYPGDRRGYYWGQGTQVTVSS | low polyreactivity
QVQLVESGGGLVQAGGSLRLSCAASGFIFPENDMGWYRQAPGKERELVATISGDTSTNYADSVKGRFTISRDNAKHTVYLQMNSLKPEDTAVYYCNRKLKGRKSHKLDYDYWGQGTQVTVSS | low polyreactivity
QVQLVESGGGLVQAGGSLRLSCAASGSIFSYNAMGWNRQAPGKESELVAAISWSGGRTYYADSVKGRFTISRDNAKNTVYLQMNSLKPEDTAVYYCNAQYRLYSEFNYWGQGTQVTVSS | high polyreactivity
QVQLVESGGGLYQAGGSLRLSCAASGRIFYCYAMGSYRQAPGKERELVAAISWRGGRTYYADSVKGRFTISRDNAKNTVYLQMNSLIPEDTAVYYCNTDFPPQGQLRNMSYWGQGTQVTVSS | high polyreactivity
QVQLVESGGGLVQAGGSLRLSCAASGSTFRRYAMGWYRQAPGKEREFVAAITWSGGNTYADSVKGRFTISRDNAKNTVYLQMNSLKPEDTAVYYCAVQLVYDHYRYDYWGQGTQVTVSS | high polyreactivity

Sequence | polyreactivity (PSR sort gate)
QVQLVESGGGLVQAGGSLRLSCAASGSTFWVYAMGWYRQAPGKERELVAGISNSGGNTYYADSVKGRFTISRDNAKNTVYLQMNSLKPEDTAVYYCNVDRGNPVPPSEYWGQGTQVSVSS | low polyreactivity
QVHLVASGGGLVQAGGSLRLSCAASGRSFYEYAMGRYRQEPGKERELVAGITSGGSTNYADSVKGRFTISRDNAKNTVYLQMTSLKPEDTAVYYCADSYWGYEYDYWGQGTQVTVSS | low polyreactivity
QVQLVESGGGLVQAGGSLRLSCAASGFTFRANAMGWYRQAPGKERELVAAISQSGGRTNYADSVKGRFTISRDNAKNTVYLQMNSLKPEDTAVYYCAAPYSAKELYYRMDYWGQGTQVTVSS | high polyreactivity
QVQLVESGGGLVQAGGSLRLSCAASGRIFLQYAMGWYRPAPGKERELVAAISRSGGSTYYADSVKGRFTISRDTAKNSVYLQMNSQKPEDTAVYYCAAALFGNRYYYWGQGTQVTVSS | low polyreactivity
QVQLVESGGGLVQAGGSLRLSCAASGSIFFKYAMGWYRQAPGKERELVASITRGGRTYYADSVKGRFTISRDNAKNTVYLQMNSLKPEDTAVYYCNKRTVWKHDYWGQGTQVTVSS | high polyreactivity
QVQLVESGGGLVQAGGSLRLSCAASGLIFRHYVMGWYRQAPGKETELVAAITSRGGTTYYADSVKGRFTISRDNAKNTVYIQMNSLKPEDTAVYYCNAVDIYPTRYEYDYWGQGTQVTVSS | high polyreactivity
QVQLVESGGGLVQAGGSLRLSCAASGFTLGYYAMGWDRQAPGKERELVASISITAGSTYYAVSVMGRLTISRDNAKNTVYLQMNSLKPEDTAVYYCAAKRRTRQSYYTVYYWGQGTQVTVSS | high polyreactivity
QVQLVESGGGLVQAGGSLRLSCAASGSIFTWNVMGWYRQAPGKERELVAAISSGGSTNYADSVKGRFTISRDNAKNTVYLQMNSLKPEDTAVYYCATYFRVWYRSYDYWGQGTQVTVSS | high polyreactivity
QVQLVESGGGLVQAGGSLRLSCAASGFTFLIYAMGWYRQAPGKERELVAAITWRGSGTYYADSVKGRFTLSRDNAKNTVYLQMNSLKPEDTAVYYCAARTARRTFDYWGQGTQVTVSS | low polyreactivity
QVQLVESGGGLVQAGGSLSLSCAASGSIFLYNAMGWYRPAPGKERELVAAISKSGGSTYYADSVKGRFTISRDNAKNTVYLQMNSLKPEDTAFYYCAAGYGRRIRYGSEYDYWGQGTQVTVSS | low polyreactivity
QVQLVESGGGLVQAGGSLRLSCAASGIIFADYAMGWYIQAPGKERELVAAISTSGGSTYYADSVKGRFTISRDNAKNPVYLQMNSLKPEDTAVYYCNAVYYTSYSGYQFVYEYDYWGQGTQVTVSS | low polyreactivity
QVQLVESGGGLVQAGGSLRLSCAASGRIFPYYAMGWYRQAPGKERELVATISTAGSTNYADSVKGRFTISRDNAKNTVYLQMNSLKPEDTAVYYCATRNTWYHRGYDYWGQGTQVTVSS | low polyreactivity
QVQLVESGGGLVQAGGSLRLSCAASGGTFYAYAMGWYRQAPGKERELVAAITRSGGRPYYADSVKGRVTISRDNAKNTVYLQMNSLKPEDTEVYYCAADPHHYSGLDYWGQGTHVTVSS | low polyreactivity
QVQLVESGGGLVQAGGSLRLSCAASGLTFKSYAMGWYRQAPGKERELVAAISWRGGRTYYADSVKGRFTISRDNAKNTVYLQMNSLKPEDTAVYYCNARSQQWWLSRYNYWGQGTQVTVSS | high polyreactivity
QVQLVESGGGIVQAGGSLRLSCAASGGIFWRYAMGWYRQAPGKERELVAAISSRGGSTYYADSVKGRFTISRDNAKNTVYLQMNSLKPEDTAVYYCAADRRYAESGYYWGHGTQVTVSS | high polyreactivity
QVQLVESGGGLVQAGGSLRLSCAASGRIFKYYAMGWYREAPGKERELVAAIDWRGDSTYYADSVKGRFTISRDHAKNTVYLQMNSLKPEDTAVYYCAVVGTRGYHGYDSWGQGTQVTVSS | low polyreactivity
QVQRVESGGGLVQAGGSLRLSCAASGSIFKYYTMGLYRPAPGKERELVAYISSGGSTKYADSVKGRFTNSRDNAKNTVYLQMNSLKPEDTAVYYCAKRYYYFYPDYDFLGQGTQVTVSS | high polyreactivity
QDQLVESGGCLVQAGGSLRLSCAASGSIFKTYAMGWYRQAPGKERELVAAISWRGGSTYYADSVKGRFTISRDNAKNTVYLQMISLKPEDTAVYYCAAGRKFGTRTLWYRYGYWGQGTQVTVSS | high polyreactivity
QVQLVESGGGLVQAGGSLRLSCAASGLIFSNYAMGWYRQAPGKERELVAAITRTATTKYADSVKGRFTISRDNAKNTVYLQMNSLKPEDSAVYYCAARSYHDRYNSWTDRYGFWGQGTQVTVSS | high polyreactivity
QVQLVESGGGLVQAGGSLRLSCAASGSTFVYNAMGWYRQAPGKERELVAAITVIGGRTYYADSVKGRFTISRDNAKNTVYLQMNSLKPEDTAVYYCAAVTYWFWPGMDYWGQGTQVTVSS | low polyreactivity
QVQLVESGGGLVQAGGSLRLSCAASGRIFRYYAMGWYRQAPGKERELVAAISYSGGRTYYADSVKGRFTISRDNAKNTVYLQMNSLKPEDTAVYYCNARARSRKFYYWGQGTQVTVSS | high polyreactivity
